Data taken from article PMC9482650, “Quantitative fragmentomics allow affinity mapping of interactomes” (Nature Communications, 2022).

T1: PDZRN3_1, Q9UPQ7
T1 sequence (Q9UPQ7 244-349, limits assumed, looked up): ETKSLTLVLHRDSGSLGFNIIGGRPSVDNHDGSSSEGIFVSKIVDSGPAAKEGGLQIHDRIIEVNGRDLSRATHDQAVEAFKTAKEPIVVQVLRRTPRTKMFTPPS

T2: ARHGAP21, Q5T5U3
T2 sequence (Q5T5U3 45-169, limits assumed, looked up): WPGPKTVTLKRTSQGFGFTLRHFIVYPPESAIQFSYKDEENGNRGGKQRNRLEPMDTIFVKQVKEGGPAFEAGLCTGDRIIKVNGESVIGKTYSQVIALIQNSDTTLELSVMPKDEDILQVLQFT

T3: DFNB31_3, Q9P202
T3 sequence (Q9P202 811-907, limits assumed, looked up): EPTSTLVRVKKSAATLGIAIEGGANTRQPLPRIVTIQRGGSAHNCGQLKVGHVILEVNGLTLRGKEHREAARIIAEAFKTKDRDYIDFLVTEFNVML

T4: MPDZ_5, O75970
T4 sequence (O75970 695-796, limits assumed, looked up): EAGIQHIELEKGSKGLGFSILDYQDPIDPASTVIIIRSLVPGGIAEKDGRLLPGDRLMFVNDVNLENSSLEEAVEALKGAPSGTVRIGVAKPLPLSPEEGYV

T5: MPDZ_12, O75970
T5 sequence (O75970 1857-1958, limits assumed, looked up): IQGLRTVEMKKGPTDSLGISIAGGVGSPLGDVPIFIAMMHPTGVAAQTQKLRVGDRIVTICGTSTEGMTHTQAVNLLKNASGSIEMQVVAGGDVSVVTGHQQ

T6: MPP7, Q5T2T1
T6 sequence (Q5T2T1 134-230, limits assumed, looked up): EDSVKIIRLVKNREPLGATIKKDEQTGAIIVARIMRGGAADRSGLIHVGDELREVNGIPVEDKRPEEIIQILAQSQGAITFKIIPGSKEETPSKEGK

T7: GRIP1_4, Q9Y3R0
T7 sequence (Q9Y3R0 467-571, limits assumed, looked up): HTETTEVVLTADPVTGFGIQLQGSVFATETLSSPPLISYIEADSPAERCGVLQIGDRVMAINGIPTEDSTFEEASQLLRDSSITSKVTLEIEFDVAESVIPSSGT

T8: DFNB31_2, Q9P202
T8 sequence (Q9P202 274-371, limits assumed, looked up): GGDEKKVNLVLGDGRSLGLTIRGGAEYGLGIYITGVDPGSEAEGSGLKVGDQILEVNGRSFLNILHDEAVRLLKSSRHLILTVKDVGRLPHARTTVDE

T9: DLG3_2, Q92796
T9 sequence (Q92796 221-321, limits assumed, looked up): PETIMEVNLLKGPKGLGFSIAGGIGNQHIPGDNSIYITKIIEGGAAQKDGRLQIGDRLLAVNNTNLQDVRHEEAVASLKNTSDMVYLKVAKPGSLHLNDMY

T10: PDZD2_2, O15018
T10 sequence (O15018 329-429, limits assumed, looked up): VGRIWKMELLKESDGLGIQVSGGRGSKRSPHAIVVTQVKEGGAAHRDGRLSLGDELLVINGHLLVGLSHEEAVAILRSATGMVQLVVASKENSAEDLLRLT

T11: SNTA1, Q13424
T11 sequence (Q13424 82-180, limits assumed, looked up): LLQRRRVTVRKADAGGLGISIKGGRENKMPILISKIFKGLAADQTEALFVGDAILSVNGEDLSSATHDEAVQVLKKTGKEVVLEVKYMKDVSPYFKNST

T12: TX1BP3, O14907
T12 sequence (O14907 10-122, limits assumed, looked up): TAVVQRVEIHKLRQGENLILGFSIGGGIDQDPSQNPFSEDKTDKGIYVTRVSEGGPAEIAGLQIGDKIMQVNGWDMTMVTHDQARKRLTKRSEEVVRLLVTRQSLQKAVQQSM

T13: MPDZ_10, O75970
T13 sequence (O75970 1624-1722, limits assumed, looked up): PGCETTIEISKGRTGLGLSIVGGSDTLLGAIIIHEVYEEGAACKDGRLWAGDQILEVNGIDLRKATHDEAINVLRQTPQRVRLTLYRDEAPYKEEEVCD


biological target: Inadl_3, Q8NI35; experiment: holdup assay; design: key: below the threshold = too weak to quantify, mostly under pKd 3.1 to 4; conditions: plain residues with an end cap or a label only (N-terminal biotin on a linker: ado-ado)
Sequence (Q8NI35 359-469): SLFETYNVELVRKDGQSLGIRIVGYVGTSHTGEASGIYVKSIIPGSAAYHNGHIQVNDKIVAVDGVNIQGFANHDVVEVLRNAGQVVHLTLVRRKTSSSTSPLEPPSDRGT

pKd	Binder
4.33	EDLEDEWEVI [TECPR2, O15040]
below the threshold	EKCGKEFSEF [PRKACA, P17612]

biological target: TJP1_2, Q07157; experiment: holdup assay; design: key: below the threshold = too weak to quantify, mostly under pKd 3.1 to 4; conditions: plain residues with an end cap or a label only (N-terminal biotin on a linker: ado-ado)
Sequence (Q07157 181-274): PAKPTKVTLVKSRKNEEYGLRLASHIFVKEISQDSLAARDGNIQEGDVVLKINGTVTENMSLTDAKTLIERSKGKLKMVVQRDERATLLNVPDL

pKd	Binder
below the threshold	EDLEDEWEVI [TECPR2, O15040]
below the threshold	EKCGKEFSEF [PRKACA, P17612]

biological target: IL16_1, Q14005; experiment: holdup assay; design: key: below the threshold = too weak to quantify, mostly under pKd 3.1 to 4; conditions: plain residues with an end cap or a label only (N-terminal biotin on a linker: ado-ado)
Sequence (Q14005 210-306): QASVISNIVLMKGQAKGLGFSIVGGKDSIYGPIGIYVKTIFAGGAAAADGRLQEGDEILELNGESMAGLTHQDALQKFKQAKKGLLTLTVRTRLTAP

pKd	Binder
below the threshold	EDLEDEWEVI [TECPR2, O15040]
below the threshold	EKCGKEFSEF [PRKACA, P17612]

biological target: FRMPD3, Q5JV73; experiment: holdup assay; design: key: below the threshold = too weak to quantify, mostly under pKd 3.1 to 4; conditions: plain residues with an end cap or a label only (N-terminal biotin on a linker: ado-ado)
Sequence (Q5JV73 12-100): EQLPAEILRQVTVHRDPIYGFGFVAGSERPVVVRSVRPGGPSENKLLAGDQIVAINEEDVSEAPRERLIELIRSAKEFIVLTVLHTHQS

pKd	Binder
below the threshold	EDLEDEWEVI [TECPR2, O15040]
below the threshold	EKCGKEFSEF [PRKACA, P17612]

biological target: T1, PDZRN3_1, Q9UPQ7; experiment: holdup assay; design: key: below the threshold = too weak to quantify, mostly under pKd 3.1 to 4; conditions: plain residues with an end cap or a label only (N-terminal biotin on a linker: ado-ado)

pKd	Binder
below the threshold	EDLEDEWEVI [TECPR2, O15040]
below the threshold	EKCGKEFSEF [PRKACA, P17612]

biological target: Inadl_4, Q8NI35; experiment: holdup assay; design: key: below the threshold = too weak to quantify, mostly under pKd 3.1 to 4; conditions: plain residues with an end cap or a label only (N-terminal biotin on a linker: ado-ado)
Sequence (Q8NI35 547-651): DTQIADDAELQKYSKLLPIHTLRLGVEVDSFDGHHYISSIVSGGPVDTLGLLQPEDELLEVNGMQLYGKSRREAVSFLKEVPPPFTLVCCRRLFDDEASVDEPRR

pKd	Binder
below the threshold	EDLEDEWEVI [TECPR2, O15040]
below the threshold	EKCGKEFSEF [PRKACA, P17612]

biological target: T2, ARHGAP21, Q5T5U3; experiment: holdup assay; design: key: below the threshold = too weak to quantify, mostly under pKd 3.1 to 4; conditions: plain residues with an end cap or a label only (N-terminal biotin on a linker: ado-ado)

pKd	Binder
below the threshold	EDLEDEWEVI [TECPR2, O15040]
below the threshold	EKCGKEFSEF [PRKACA, P17612]

biological target: T3, DFNB31_3, Q9P202; experiment: holdup assay; design: key: below the threshold = too weak to quantify, mostly under pKd 3.1 to 4; conditions: plain residues with an end cap or a label only (N-terminal biotin on a linker: ado-ado)

pKd	Binder
3.76	EDLEDEWEVI [TECPR2, O15040]
below the threshold	EKCGKEFSEF [PRKACA, P17612]

biological target: LIMK2, P53671; experiment: holdup assay; design: key: below the threshold = too weak to quantify, mostly under pKd 3.1 to 4; conditions: plain residues with an end cap or a label only (N-terminal biotin on a linker: ado-ado)
Sequence (P53671 143-248): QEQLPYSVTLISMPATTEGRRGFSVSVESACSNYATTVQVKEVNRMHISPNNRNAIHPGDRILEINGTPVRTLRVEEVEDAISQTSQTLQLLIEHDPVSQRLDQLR

pKd	Binder
below the threshold	EDLEDEWEVI [TECPR2, O15040]
below the threshold	EKCGKEFSEF [PRKACA, P17612]

biological target: GRIP2_6, Q9C0E4; experiment: holdup assay; design: key: below the threshold = too weak to quantify, mostly under pKd 3.1 to 4; conditions: plain residues with an end cap or a label only (N-terminal biotin on a linker: ado-ado)
Sequence (Q9C0E4 648-740): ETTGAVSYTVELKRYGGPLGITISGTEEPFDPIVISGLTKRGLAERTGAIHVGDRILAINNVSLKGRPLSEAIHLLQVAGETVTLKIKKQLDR

pKd	Binder
below the threshold	EDLEDEWEVI [TECPR2, O15040]
below the threshold	EKCGKEFSEF [PRKACA, P17612]

biological target: T4, MPDZ_5, O75970; experiment: holdup assay; design: key: below the threshold = too weak to quantify, mostly under pKd 3.1 to 4; conditions: plain residues with an end cap or a label only (N-terminal biotin on a linker: ado-ado)

pKd	Binder
below the threshold	EDLEDEWEVI [TECPR2, O15040]
below the threshold	EKCGKEFSEF [PRKACA, P17612]

biological target: T5, MPDZ_12, O75970; experiment: holdup assay; design: key: below the threshold = too weak to quantify, mostly under pKd 3.1 to 4; conditions: plain residues with an end cap or a label only (N-terminal biotin on a linker: ado-ado)

pKd	Binder
below the threshold	EDLEDEWEVI [TECPR2, O15040]
below the threshold	EKCGKEFSEF [PRKACA, P17612]

biological target: T6, MPP7, Q5T2T1; experiment: holdup assay; design: key: below the threshold = too weak to quantify, mostly under pKd 3.1 to 4; conditions: plain residues with an end cap or a label only (N-terminal biotin on a linker: ado-ado)

pKd	Binder
below the threshold	EDLEDEWEVI [TECPR2, O15040]
below the threshold	EKCGKEFSEF [PRKACA, P17612]

biological target: T7, GRIP1_4, Q9Y3R0; experiment: holdup assay; design: key: below the threshold = too weak to quantify, mostly under pKd 3.1 to 4; conditions: plain residues with an end cap or a label only (N-terminal biotin on a linker: ado-ado)

pKd	Binder
below the threshold	EDLEDEWEVI [TECPR2, O15040]
below the threshold	EKCGKEFSEF [PRKACA, P17612]

biological target: MAGI3_2, Q5TCQ9; experiment: holdup assay; design: key: below the threshold = too weak to quantify, mostly under pKd 3.1 to 4; conditions: plain residues with an end cap or a label only (N-terminal biotin on a linker: ado-ado)
Sequence (Q5TCQ9 398-503): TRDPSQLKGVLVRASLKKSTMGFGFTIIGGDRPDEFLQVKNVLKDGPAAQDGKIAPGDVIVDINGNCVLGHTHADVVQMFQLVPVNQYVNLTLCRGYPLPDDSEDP

pKd	Binder
below the threshold	EDLEDEWEVI [TECPR2, O15040]
below the threshold	EKCGKEFSEF [PRKACA, P17612]

biological target: T8, DFNB31_2, Q9P202; experiment: holdup assay; design: key: below the threshold = too weak to quantify, mostly under pKd 3.1 to 4; conditions: plain residues with an end cap or a label only (N-terminal biotin on a linker: ado-ado)

pKd	Binder
below the threshold	EDLEDEWEVI [TECPR2, O15040]
below the threshold	EKCGKEFSEF [PRKACA, P17612]

biological target: HTRA1, Q92743; experiment: holdup assay; design: key: below the threshold = too weak to quantify, mostly under pKd 3.1 to 4; conditions: plain residues with an end cap or a label only (N-terminal biotin on a linker: ado-ado)
Sequence (Q92743 360-477): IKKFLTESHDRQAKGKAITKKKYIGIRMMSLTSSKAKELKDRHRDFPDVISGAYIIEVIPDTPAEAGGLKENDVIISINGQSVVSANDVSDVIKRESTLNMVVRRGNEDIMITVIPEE

pKd	Binder
5.29	EDLEDEWEVI [TECPR2, O15040]
below the threshold	EKCGKEFSEF [PRKACA, P17612]

biological target: T9, DLG3_2, Q92796; experiment: holdup assay; design: key: below the threshold = too weak to quantify, mostly under pKd 3.1 to 4; conditions: plain residues with an end cap or a label only (N-terminal biotin on a linker: ado-ado)

pKd	Binder
4.09	EDLEDEWEVI [TECPR2, O15040]
4.11	EKCGKEFSEF [PRKACA, P17612]

biological target: T10, PDZD2_2, O15018; experiment: holdup assay; design: key: below the threshold = too weak to quantify, mostly under pKd 3.1 to 4; conditions: plain residues with an end cap or a label only (N-terminal biotin on a linker: ado-ado)

pKd	Binder
3.84	EDLEDEWEVI [TECPR2, O15040]
3.68	EKCGKEFSEF [PRKACA, P17612]

biological target: T11, SNTA1, Q13424; experiment: holdup assay; design: key: below the threshold = too weak to quantify, mostly under pKd 3.1 to 4; conditions: plain residues with an end cap or a label only (N-terminal biotin on a linker: ado-ado)

pKd	Binder
below the threshold	EDLEDEWEVI [TECPR2, O15040]
below the threshold	EKCGKEFSEF [PRKACA, P17612]

biological target: T12, TX1BP3, O14907; experiment: holdup assay; design: key: below the threshold = too weak to quantify, mostly under pKd 3.1 to 4; conditions: plain residues with an end cap or a label only (N-terminal biotin on a linker: ado-ado)

pKd	Binder
below the threshold	EDLEDEWEVI [TECPR2, O15040]
below the threshold	EKCGKEFSEF [PRKACA, P17612]

biological target: PDLIM1, O00151; experiment: holdup assay; design: key: below the threshold = too weak to quantify, mostly under pKd 3.1 to 4; conditions: plain residues with an end cap or a label only (N-terminal biotin on a linker: ado-ado)
Sequence (O00151 1-87): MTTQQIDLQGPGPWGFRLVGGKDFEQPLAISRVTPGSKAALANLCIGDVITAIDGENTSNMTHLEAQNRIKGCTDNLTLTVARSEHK

pKd	Binder
below the threshold	EDLEDEWEVI [TECPR2, O15040]
below the threshold	EKCGKEFSEF [PRKACA, P17612]

biological target: T13, MPDZ_10, O75970; experiment: holdup assay; design: key: below the threshold = too weak to quantify, mostly under pKd 3.1 to 4; conditions: plain residues with an end cap or a label only (N-terminal biotin on a linker: ado-ado)

pKd	Binder
below the threshold	EDLEDEWEVI [TECPR2, O15040]
below the threshold	EKCGKEFSEF [PRKACA, P17612]

biological target: MAGI2_2, Q86UL8; experiment: holdup assay; design: key: below the threshold = too weak to quantify, mostly under pKd 3.1 to 4; conditions: plain residues with an end cap or a label only (N-terminal biotin on a linker: ado-ado)
Sequence (Q86UL8 410-522): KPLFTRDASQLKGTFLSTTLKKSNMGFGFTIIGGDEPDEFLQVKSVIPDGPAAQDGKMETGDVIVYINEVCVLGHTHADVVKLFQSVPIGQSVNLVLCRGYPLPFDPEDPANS

pKd	Binder
below the threshold	EDLEDEWEVI [TECPR2, O15040]
below the threshold	EKCGKEFSEF [PRKACA, P17612]
